Assay: RP-HPLC: insulin apparent solubility / percent recovery
Conditions: 7 days at 2-8° C.
Description: Apparent solubility was measured as the percent insulin recovery as compared to the initial formulations/conditions.
Samples were prepared by withdrawing 100 μL from each vial at every time point and centrifuging prior to loading. Samples were stored in an autosampler at 4° C. prior to use, and were considered stable for 3 days after preparation. All samples were tested in duplicate.
For insulin, 20 μL was injected for each HPLC run.
To determine the apparent solubility, the peak area of insulin/insulin analog main peak and desamido peak were integrated and combined together to calculate the percentage relative to the standards. […] The data were processed using Design-Expert® 7.0 (StatEase) and the “historical data” feature. Insulin percent purity was expressed as the percent of main insulin versus all insulin species.

Substance: Insulin Aspart
- Solubility of Insulin Aspart, % remaining of the original concentration (0.2% methylparaben + […] m-cresol, pH 6.6, NaCl 50 mM): 57.7%
- Solubility of Insulin Aspart, % remaining of the original concentration (0.2% methylparaben + […] m-cresol, pH 6.6, NaCl 80 mM): 32.1%
- Solubility of Insulin Aspart, % remaining of the original concentration (0.2% methylparaben + […] m-cresol, pH 6.6, NaCl 110 mM): 21.1%
- Solubility of Insulin Aspart, % remaining of the original concentration (0.2% methylparaben + […] m-cresol, pH 6.6, NaCl 140 mM): 14.7%
- Solubility of Insulin Aspart, % remaining of the original concentration (0.2% methylparaben + […] m-cresol, pH 6.8, NaCl 50 mM): 97.2%
- Solubility of Insulin Aspart, % remaining of the original concentration (0.2% methylparaben + […] m-cresol, pH 6.8, NaCl 80 mM): 84.1%
- Solubility of Insulin Aspart, % remaining of the original concentration (0.2% methylparaben + […] m-cresol, pH 6.8, NaCl 110 mM): 54.2%
- Solubility of Insulin Aspart, % remaining of the original concentration (0.2% methylparaben + […] m-cresol, pH 6.8, NaCl 140 mM): 32.2%
- Solubility of Insulin Aspart, % remaining of the original concentration (0.2% methylparaben + […] m-cresol, pH 7.0, NaCl 50 mM): 98.7%
- Solubility of Insulin Aspart, % remaining of the original concentration (0.2% methylparaben + […] m-cresol, pH 7.0, NaCl 80 mM): 100.2%
- Solubility of Insulin Aspart, % remaining of the original concentration (0.2% methylparaben + […] m-cresol, pH 7.0, NaCl 110 mM): 96.3%
- Solubility of Insulin Aspart, % remaining of the original concentration (0.2% methylparaben + […] m-cresol, pH 7.0, NaCl 140 mM): 67.9%
- Solubility of Insulin Aspart, % remaining of the original concentration (0.2% methylparaben + […] m-cresol, pH 7.2, NaCl 50 mM): 99.0%
- Solubility of Insulin Aspart, % remaining of the original concentration (0.2% methylparaben + […] m-cresol, pH 7.2, NaCl 80 mM): 100.2%
- Solubility of Insulin Aspart, % remaining of the original concentration (0.2% methylparaben + […] m-cresol, pH 7.2, NaCl 110 mM): 99.5%
- Solubility of Insulin Aspart, % remaining of the original concentration (0.2% methylparaben + […] m-cresol, pH 7.2, NaCl 140 mM): 101.6%
- Solubility of Insulin Aspart, % remaining of the original concentration (0.2% methylparaben + […] m-cresol, pH 7.4, NaCl 50 mM): 99.1%
- Solubility of Insulin Aspart, % remaining of the original concentration (0.2% methylparaben + […] m-cresol, pH 7.4, NaCl 80 mM): 100.5%
- Solubility of Insulin Aspart, % remaining of the original concentration (0.2% methylparaben + […] m-cresol, pH 7.4, NaCl 110 mM): 99.6%
- Solubility of Insulin Aspart, % remaining of the original concentration (0.2% methylparaben + […] m-cresol, pH 7.4, NaCl 140 mM): 99.6%
- Solubility of Insulin Aspart, % remaining of the original concentration (0.2% methylparaben + […] m-cresol, pH 7.6, NaCl 50 mM): 99.3%
- Solubility of Insulin Aspart, % remaining of the original concentration (0.2% methylparaben + […] m-cresol, pH 7.6, NaCl 80 mM): 100.6%
- Solubility of Insulin Aspart, % remaining of the original concentration (0.2% methylparaben + […] m-cresol, pH 7.6, NaCl 110 mM): 99.8%
- Solubility of Insulin Aspart, % remaining of the original concentration (0.2% methylparaben + […] m-cresol, pH 7.6, NaCl 140 mM): 99.8%
- Solubility of Insulin Aspart, % remaining of the original concentration (0.2% phenol + […] m-cresol, pH 6.6, NaCl 50 mM): 91.8%
- Solubility of Insulin Aspart, % remaining of the original concentration (0.2% phenol + […] m-cresol, pH 6.6, NaCl 80 mM): 59.2%
- Solubility of Insulin Aspart, % remaining of the original concentration (0.2% phenol + […] m-cresol, pH 6.6, NaCl 110 mM): 58.0%
- Solubility of Insulin Aspart, % remaining of the original concentration (0.2% phenol + […] m-cresol, pH 6.6, NaCl 140 mM): 39.3%
- Solubility of Insulin Aspart, % remaining of the original concentration (0.2% phenol + […] m-cresol, pH 6.8, NaCl 50 mM): 98.8%
- Solubility of Insulin Aspart, % remaining of the original concentration (0.2% phenol + […] m-cresol, pH 6.8, NaCl 80 mM): 91.8%
- Solubility of Insulin Aspart, % remaining of the original concentration (0.2% phenol + […] m-cresol, pH 6.8, NaCl 110 mM): 72.8%
- Solubility of Insulin Aspart, % remaining of the original concentration (0.2% phenol + […] m-cresol, pH 6.8, NaCl 140 mM): 50.9%
- Solubility of Insulin Aspart, % remaining of the original concentration (0.2% phenol + […] m-cresol, pH 7.0, NaCl 50 mM): 99.1%
- Solubility of Insulin Aspart, % remaining of the original concentration (0.2% phenol + […] m-cresol, pH 7.0, NaCl 80 mM): 100.6%
- Solubility of Insulin Aspart, % remaining of the original concentration (0.2% phenol + […] m-cresol, pH 7.0, NaCl 110 mM): 99.9%
- Solubility of Insulin Aspart, % remaining of the original concentration (0.2% phenol + […] m-cresol, pH 7.0, NaCl 140 mM): 88.9%
- Solubility of Insulin Aspart, % remaining of the original concentration (0.2% phenol + […] m-cresol, pH 7.2, NaCl 50 mM): 99.1%
- Solubility of Insulin Aspart, % remaining of the original concentration (0.2% phenol + […] m-cresol, pH 7.2, NaCl 80 mM): 100.5%
- Solubility of Insulin Aspart, % remaining of the original concentration (0.2% phenol + […] m-cresol, pH 7.2, NaCl 110 mM): 100.0%
- Solubility of Insulin Aspart, % remaining of the original concentration (0.2% phenol + […] m-cresol, pH 7.2, NaCl 140 mM): 99.7%
- Solubility of Insulin Aspart, % remaining of the original concentration (0.2% phenol + […] m-cresol, pH 7.4, NaCl 50 mM): 99.2%
- Solubility of Insulin Aspart, % remaining of the original concentration (0.2% phenol + […] m-cresol, pH 7.4, NaCl 80 mM): 100.6%
- Solubility of Insulin Aspart, % remaining of the original concentration (0.2% phenol + […] m-cresol, pH 7.4, NaCl 110 mM): 100.0%
- Solubility of Insulin Aspart, % remaining of the original concentration (0.2% phenol + […] m-cresol, pH 7.4, NaCl 140 mM): 99.7%
- Solubility of Insulin Aspart, % remaining of the original concentration (0.2% phenol + […] m-cresol, pH 7.6, NaCl 50 mM): 99.2%
- Solubility of Insulin Aspart, % remaining of the original concentration (0.2% phenol + […] m-cresol, pH 7.6, NaCl 80 mM): 100.8%
- Solubility of Insulin Aspart, % remaining of the original concentration (0.2% phenol + […] m-cresol, pH 7.6, NaCl 110 mM): 100.2%
- Solubility of Insulin Aspart, % remaining of the original concentration (0.2% phenol + […] m-cresol, pH 7.6, NaCl 140 mM): 99.8%
- Solubility of Insulin Aspart, % remaining of the original concentration ([…] phenol + […] m-cresol, pH 6.6, NaCl 50 mM): 97.9%
- Solubility of Insulin Aspart, % remaining of the original concentration ([…] phenol + […] m-cresol, pH 6.6, NaCl 80 mM): 86.3%
- Solubility of Insulin Aspart, % remaining of the original concentration ([…] phenol + […] m-cresol, pH 6.6, NaCl 110 mM): 54.4%
- Solubility of Insulin Aspart, % remaining of the original concentration ([…] phenol + […] m-cresol, pH 6.6, NaCl 140 mM): 38.3%
- Solubility of Insulin Aspart, % remaining of the original concentration ([…] phenol + […] m-cresol, pH 6.8, NaCl 50 mM): 99.8%
- Solubility of Insulin Aspart, % remaining of the original concentration ([…] phenol + […] m-cresol, pH 6.8, NaCl 80 mM): 97.9%
- Solubility of Insulin Aspart, % remaining of the original concentration ([…] phenol + […] m-cresol, pH 6.8, NaCl 110 mM): 97.5%
- Solubility of Insulin Aspart, % remaining of the original concentration ([…] phenol + […] m-cresol, pH 6.8, NaCl 140 mM): 60.5%
- Solubility of Insulin Aspart, % remaining of the original concentration ([…] phenol + […] m-cresol, pH 7.0, NaCl 50 mM): 99.7%
- Solubility of Insulin Aspart, % remaining of the original concentration ([…] phenol + […] m-cresol, pH 7.0, NaCl 80 mM): 99.3%
- Solubility of Insulin Aspart, % remaining of the original concentration ([…] phenol + […] m-cresol, pH 7.0, NaCl 110 mM): 99.3%
- Solubility of Insulin Aspart, % remaining of the original concentration ([…] phenol + […] m-cresol, pH 7.0, NaCl 140 mM): 100.2%
- Solubility of Insulin Aspart, % remaining of the original concentration ([…] phenol + […] m-cresol, pH 7.2, NaCl 50 mM): 99.1%
- Solubility of Insulin Aspart, % remaining of the original concentration ([…] phenol + […] m-cresol, pH 7.2, NaCl 80 mM): 99.2%
- Solubility of Insulin Aspart, % remaining of the original concentration ([…] phenol + […] m-cresol, pH 7.2, NaCl 110 mM): 99.2%
- Solubility of Insulin Aspart, % remaining of the original concentration ([…] phenol + […] m-cresol, pH 7.2, NaCl 140 mM): 101.1%
- Solubility of Insulin Aspart, % remaining of the original concentration ([…] phenol + […] m-cresol, pH 7.4, NaCl 50 mM): 100.0%
- Solubility of Insulin Aspart, % remaining of the original concentration ([…] phenol + […] m-cresol, pH 7.4, NaCl 80 mM): 99.6%
- Solubility of Insulin Aspart, % remaining of the original concentration ([…] phenol + […] m-cresol, pH 7.4, NaCl 110 mM): 99.5%
- Solubility of Insulin Aspart, % remaining of the original concentration ([…] phenol + […] m-cresol, pH 7.4, NaCl 140 mM): 101.1%
- Solubility of Insulin Aspart, % remaining of the original concentration ([…] phenol + […] m-cresol, pH 7.6, NaCl 50 mM): 100.1%
- Solubility of Insulin Aspart, % remaining of the original concentration ([…] phenol + […] m-cresol, pH 7.6, NaCl 80 mM): 99.7%
- Solubility of Insulin Aspart, % remaining of the original concentration ([…] phenol + […] m-cresol, pH 7.6, NaCl 110 mM): 99.4%
- Solubility of Insulin Aspart, % remaining of the original concentration ([…] phenol + […] m-cresol, pH 7.6, NaCl 140 mM): 101.1%

From patent US20130011378A1, “Stable formulations of a hyaluronan-degrading enzyme” (priority 2011, published 2013)
